Measured values as given in patent US20230279119A1 (published 2023).

B1: HuC6D4F12 scFv (scFv, V domains shown)
VH: QIQLVQSGAEVKKPGASVKISCKASGYTFTKYSMHWVRQAPGQGLEWVARINTETGEPTFADDFRGRFTVTLDTSTSTAYLEIRSLRSDDTAVYFCAIFYYGRDTWGQGTTLTVSS
VL: EIVMTQSPATLSVSPGERVTMSCKSSQSLLHSRSRKNYLAWYQQKPGQAPRLLIYWASTRESGVPARFSGSGSGTEFTLTISSVQSEDFAVYYCKQSYNLLSFGQGTVLEIK
notes: not shown: The scFv linker, the domain order, and the yeast-display partner and tags (vector pYD4)
B2: C6D4 scFv (scFv, V domains shown)
VH: QIQLVQSGPELKKPGETVKISCKASGYTFTDYSMHWVKQAPGKGLKWVARINTETGEPTFADDFRGRFAVSLETSASTAYLQINNLKNEDTATYFCAIFYYGRDSWGQGTTLTVSS
VL: DIVMTQSPSSLAVSAGEKVTMSCKSSQSLLNSRTRKNYLAWYQQKPGQSPRLLIYWASTRESGVPDRFTGSGSGTDFTLTISSVQAEDLAVYYCKQSYNLLSFGAGTKLELK
notes: as for B1

Biological target: T1, recombinant αvβ8 ectodomain (UniProt P06756 31-992; P26012 43-684, limits assumed)
T1 construct: extracellular domain; the ELISA and TMLC assays say only 'recombinant αvβ8'; also called immobilized αvβ8; integrin αvβ8
Experiment: scFv KD; method not stated (yeast-displayed scFv library was sorted with recombinant αvβ8 ectodomain)

T1 sequence (P06756 31-992 limits assumed, chain 1 of 2): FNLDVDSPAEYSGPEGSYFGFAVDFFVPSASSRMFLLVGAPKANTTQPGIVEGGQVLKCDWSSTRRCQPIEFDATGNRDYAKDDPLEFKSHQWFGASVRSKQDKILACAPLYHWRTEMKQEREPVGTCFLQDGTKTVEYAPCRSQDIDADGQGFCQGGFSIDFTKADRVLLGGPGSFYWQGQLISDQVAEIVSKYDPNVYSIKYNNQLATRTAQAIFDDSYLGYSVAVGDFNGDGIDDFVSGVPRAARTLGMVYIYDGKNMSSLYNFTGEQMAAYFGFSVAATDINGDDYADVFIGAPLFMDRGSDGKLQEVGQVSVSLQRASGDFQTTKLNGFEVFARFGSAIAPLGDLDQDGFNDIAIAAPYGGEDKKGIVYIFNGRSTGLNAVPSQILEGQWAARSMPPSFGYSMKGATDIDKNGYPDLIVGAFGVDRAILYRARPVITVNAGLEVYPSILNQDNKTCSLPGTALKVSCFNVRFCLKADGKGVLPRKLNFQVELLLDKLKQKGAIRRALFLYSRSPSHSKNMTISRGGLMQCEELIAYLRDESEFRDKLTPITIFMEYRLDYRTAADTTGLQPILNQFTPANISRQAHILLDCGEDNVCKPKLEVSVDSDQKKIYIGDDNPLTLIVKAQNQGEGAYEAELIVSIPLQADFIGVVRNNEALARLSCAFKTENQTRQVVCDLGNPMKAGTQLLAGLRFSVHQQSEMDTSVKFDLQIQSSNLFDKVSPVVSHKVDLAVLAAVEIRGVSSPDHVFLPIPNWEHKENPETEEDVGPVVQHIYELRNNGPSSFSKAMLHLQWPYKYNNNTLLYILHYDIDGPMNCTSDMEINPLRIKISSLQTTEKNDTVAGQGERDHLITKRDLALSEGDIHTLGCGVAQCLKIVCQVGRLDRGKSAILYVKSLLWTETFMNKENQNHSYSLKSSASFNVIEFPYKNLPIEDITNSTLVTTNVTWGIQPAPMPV
T1 sequence (P26012 43-684 limits assumed, chain 2 of 2): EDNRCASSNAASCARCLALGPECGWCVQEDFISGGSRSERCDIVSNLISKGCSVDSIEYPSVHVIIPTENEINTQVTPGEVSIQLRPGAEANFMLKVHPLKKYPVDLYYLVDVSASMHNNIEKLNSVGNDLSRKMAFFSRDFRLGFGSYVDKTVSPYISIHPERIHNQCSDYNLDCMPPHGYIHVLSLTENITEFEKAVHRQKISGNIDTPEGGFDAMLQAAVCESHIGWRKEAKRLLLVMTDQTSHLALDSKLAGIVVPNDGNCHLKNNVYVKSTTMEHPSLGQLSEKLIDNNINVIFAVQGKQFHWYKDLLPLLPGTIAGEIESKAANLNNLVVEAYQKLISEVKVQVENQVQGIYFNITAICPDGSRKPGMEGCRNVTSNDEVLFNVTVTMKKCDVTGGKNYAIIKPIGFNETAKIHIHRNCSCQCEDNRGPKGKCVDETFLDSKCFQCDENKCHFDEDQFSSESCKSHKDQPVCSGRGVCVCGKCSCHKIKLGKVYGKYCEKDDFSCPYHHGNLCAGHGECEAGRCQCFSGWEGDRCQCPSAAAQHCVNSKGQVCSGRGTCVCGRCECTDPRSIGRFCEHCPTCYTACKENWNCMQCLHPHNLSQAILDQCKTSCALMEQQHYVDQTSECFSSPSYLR

Binder	Kd [nM]
B1	0.39
B2	7.25
